For assay [1], the system named is MDA-MB-231 cells. The assay is described as follows: Apoptosis, Annexin V-FITC flow cytometry. It is filed as cell-based, human. As to conditions: 100 μM etoposide, 48 hrs. As to the method:
(§1) Cells were seeded into 96-well dishes at a density of 1×10^4 cell per well in complete medium with varying doses of cmvIL-10, and then cell viability measured at the indicated time points using the Cell Titer Glo Assay kit according to manufacturer's instructions (Promega). DNA synthesis was measured in cells prepared in the same way using the BrdU Cell Proliferation ELISA Kit (Roche, Basel, Switzerland). For experiments using inhibitors, cells were cultivated in 96-well dishes as above with a final concentration of 10 μM inhibitor and BrdU incorporation evaluated after 72 hrs. For cell counts, cells were seeded into 6-well plates at a density of 2×10^5 cells per well, harvested via trypsinization, and counted using a hemacytometer at the indicated time points. The TACS Annexin V-FITC Detection Kit (Trevigen, Gaithersburg, Md.) was used to stain cells harvested from 70% confluent T75 flasks that had been treated with 100 μM etoposide for 48 hrs in the presence or absence of 100 ng/ml cmvIL-10. Cells were then analyzed via flow cytometry to detect fluorescence. For viability assays, Cell Titer Glo reagent was utilized to quantify cells that had been seeded into 96-well dishes at a density of 1×10^4 cell per well in complete medium with varying doses of etoposide in the presence or absence of 100 ng/ml cmvIL-10 as indicated

A further assay has as its target T1, CXCR4 (Homo sapiens, UniProt P61073).
T1 construct: HEK293 cells, which endogenously express both CXCR4 and IL-10R; endogenous in cells; host or cells: HEK293
In words: Calcium flux assay in HEK293 cells. It is filed as cell-based. As to conditions: CXCL12 0.1 μg/ml alone. As to the method:
Calcium flux assays were performed as described (Arnolds K L, et al. Virology 439:122-131.). Briefly, cells were resuspended in 2 mls calcium assay buffer (RPMI with 25 mM of HEPES) at a density of 5×10^5 cells/ml per sample. Each sample was labeled with 2 μl of Fluo-4AM (Invitrogen, Grand Island, N.Y.), wrapped in foil, at 37° C. for 30 minutes with agitation at 10-minute intervals. Following incubation, each sample was pelleted, resuspended in calcium assay buffer, and transferred into an eppendorf tube for flow cytometry using the BD C6 Accuri. Fluorescence intensity of each sample was measured for 20 seconds to establish baseline, then stimulus (CXCL12, in the presence or absence of cmvIL-10, as indicated) was added via micropipetting directly into the sample while fluorescence intensity was measured. Kinetic fluorescence intensity analysis was performed with FlowJo software v9.4.9 (FlowJo, Ashland, Oreg.). Purified recombinant cmvIL-10 was purchased from R&D Systems (Minneapolis, Minn.) and purified recombinant CXCL12 was purchased from Peprotech (Rocky Hill, N.J.). For each calcium flux assay, ionomycin (Sigma) was a positive control for Fluo-4AM loading and PBS served as a negative control for the addition of stimulus.

Another assay relates to HEK293 cells. The assay is described as follows: Transwell migration toward CXCL12. As to conditions: 4 hours, 5.0 μm filter. It is filed as cell-based, human. The protocol:
Transwell migration assays were performed by suspending cells at a density of 5×10^4 cells/ml in migration media (MEM or RPMI […] media plus 0.5% FBS). A total of 75 μl of cells was placed onto the upper chamber of a 96-well transwell system with 5.0 μm pores (Corning-Costar, Corning, N.Y.). The lower chamber contained 235 μl of migration media with CXCL12 plus or minus cmvIL-10 as indicated. Plates were incubated for four hours at 37° C., and then cells that traversed through the filter into the lower chamber were quantified via the addition of CellTitre-Glo reagent (Promega, Madison, Wis.) according to manufacturer's instructions.

Assay [2] concerns MDA-MB-231 cells. The assay is described as follows: DNA synthesis, BrdU Cell Proliferation ELISA. It is filed as cell-based, human. As to conditions: 10 ng/ml of each cytokine, 72 hrs. The protocol: as §1
The next assay relates to Stat3. In words: Western blot for Stat3 phosphorylation in MDA-MB-231 cells. The assay is classed as cell-based, human. As to conditions: 100 ng/ml, 15 min. The protocol:
(§2) For western blotting, cells were treated with 100 ng/ml cmvIL-10, hIL-10, IFNγ or PBS for 15 min, then harvested into cell lysis buffer (150 mM NaCl, 20 mM HEPES, 0.5% Triton-X-100, 1 mM NaOV4, 1 mM EDTA, 0.1% NaN3). Lysates were clarified, proteins were separated via SDS-PAGE, and then transferred to a nitrocellulose membrane. Then membrane was incubated in blocking solution (5% milk+1×TBS-T) for 1 hr, then probed with primary antibody at a 1:1000 dilution (total Stat3 or pStat3, total Stat1 or pStat1) in blocking solution overnight at 4° C. After washing, the membranes were incubated with a 1:2000 dilution of appropriate AP-conjugated secondary antibody and bands were detected using Western Blue stabilized AP substrate (Promega, Madison, Wis.). For analysis of secreted proteins, supernatants were collected at various time points, analyzed by SDS-PAGE and then immunoblotted as above for cmvIL-10, hIL-10, or serpin E1/PAI.

In the next assay the test system is Stat1. In words: Western blot for Stat1 phosphorylation in MDA-MB-231 cells. The assay is classed as cell-based, human. As to conditions: 100 ng/ml, 15 min. The protocol: as §2

This is an account of results in patent US20180128830A1, “DETECTION OF HUMAN CYTOMEGALOVIRUS IN BREAST CANCER” (priority 2015, published 2018).

T1 sequence (P61073 whole entry): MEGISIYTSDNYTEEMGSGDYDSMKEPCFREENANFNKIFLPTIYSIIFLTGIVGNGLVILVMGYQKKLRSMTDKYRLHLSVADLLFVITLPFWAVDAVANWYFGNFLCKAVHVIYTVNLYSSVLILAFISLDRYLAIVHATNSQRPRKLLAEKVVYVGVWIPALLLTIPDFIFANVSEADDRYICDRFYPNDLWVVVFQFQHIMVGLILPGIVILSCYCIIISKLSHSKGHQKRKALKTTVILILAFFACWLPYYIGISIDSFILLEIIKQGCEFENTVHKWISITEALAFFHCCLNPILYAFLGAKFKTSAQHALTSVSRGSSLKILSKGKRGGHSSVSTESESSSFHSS

Consider `COc1cc([C@@H]2c3cc4c(cc3[C@@H](O[C@@H]3O[C@@H]5CO[C@@H](C)O[C@H]5[C@H](O)[C@H]3O)[C@H]3COC(=O)[C@H]23)OCO4)cc(OC)c1O` [etoposide, reference compound], for which, in the assay on MDA-MB-231 cells [1], the “cells stained positive for Annexin V” value is 30.9%.
For the molecule “CXCL12: purified recombinant CXCL12 chemokine from Peprotech”, in the assay with CXCR4, the “calcium mobilization (fluorescence)” value is listed as “rapid but transient increase in fluorescence”. For the same molecule, the “CXCL12 dose giving maximal migration” value in the assay on HEK293 cells worked out at 0.1 ng/mL.
On to “IL-6: purified recombinant IL-6 from R&D Systems”, for which, in the assay with MDA-MB-231 cells [2], the “cell proliferation (BrdU incorporation)” value is reported as “inhibited cell growth”.

B1: IFNγ: purified recombinant interferon-gamma from R&D Systems (protein, UniProt P01579 24-161, looked up)
Interferon gamma: QDPYVKEAENLKKYFNAGHSDVADNGTLFLGILKNWKEESDRKIMQSQIVSFYFKLFKNFKDDQSIQKSVETIKEDMNVKFFNSNKKKRDDFEKLTNYSVTDLNVQRKAIHELIQVMAELSPAAKTGKRKRSQMLFRG
For B1, in the assay with Stat3, the “83 kD band of phosphorylated Stat3 (pStat3)” value was “not”. Moreover, in the assay on Stat1, the Stat1 phosphorylation entry is listed as “phosphorylated in response to IFNγ treatment only”. The “cell proliferation (BrdU incorporation)” value in the assay on MDA-MB-231 cells [2] is reported as “inhibited cell growth”.
